Data from patent publication US10874712B2, “Methods, compounds and compositions for modulating blood brain barrier integrity and re-myelination” (University Health Network, priority 2015, dated 2020).

Columns and labels:
[1] = system: rats subjected to MCAO; assay: Middle Cerebral Artery Occlusion (MCAO), Evans Blue BBB integrity; assay type: in vivo, rat; conditions: daily tail vein injection of 70 μg, seven days following MCAO
Procedure: The possibility that RGMc may also restore BBB integrity following stroke was also tested. Middle Cerebral Artery Occlusion (MCAO) was performed in rats, which were treated with a daily tail vein injection of 70 μg of RGMc or PBS (control). Seven days following MCAO, animals received injection of Evans blue to monitor BBB integrity (FIG. 24). To measure BBB integrity, the amount of Evans Blue Dye/g of brain tissue was measured. […] This effect was also quantitated: brains were homogenized and the amount of Evans Blue quantified per gram of wet brain (FIG. 24, B).

[2] = system: mice with passively induced EAE; assay: Adoptive transfer EAE, infiltration of CellVue-labelled cells into spinal cord; assay type: in vivo, mouse; conditions: treated every 3 days; sacrificed day 8 after transfer; vs PBS
Procedure: Briefly, donor animals were immunized with 100 ug MOG(35-55) and sacrificed at day 10. Splenocytes were harvested and re-stimulated for 3 days with 33 ug/mL MOG(35-55) in the presence of 20 ng/ml rmIL-23. Cells were then labelled with CellVue Maroon and injected into recipient animals treated with RGMc or vehicle as well as PTx on day 0 and day 2. Recipient animals were treated every 3 days and sacrificed on day 8 and spinal cords sectioned for immunofluorescence staining.
Having shown that RGMc levels regulate the extravasation of molecules through the BBB, its role on cellular infiltration was evaluated. To do so, adaptive transfer using spleenocyte cells from MOG treated animals was performed. After collection of splenocyte cells were re-stimulated for 3 days with MOG, stained with Cellvue Maroon and injected into recipient mice treated with pertussis toxin. Following injection, animals received either PBS (Control) or RGMc every 3 days. Eight days after transfer animals were sacrificed and cellular infiltration was monitored using Cellvue-reporter. […] Thus, treatment with RGMc prevented T cell infiltration towards the CNS.

[3] = system: rats subjected to MCAO; assay: MCAO, neurological deficit (Bederson test); assay type: in vivo, rat; conditions: tail-vein injection of 70 μg, 7 day period, vs PBS
Procedure: In a separate experiment, whether RGMc treatment, which prevents BBB disruption following stroke, could lead to functional recovery (FIG. 25) was studied. Rats were subjected to MCAO and treated with either tail-vein injection of 70 μg of RGMc or control (PBS).

[4] = target: T1, Neogenin (Homo sapiens, UniProt Q92859); assay: In vitro competition binding assay (AP-tagged proteins); conditions: competition assay, FIG. 6C
T1 construct: His-tagged proteins (2.5 μg/mL of extracellular-Neogenin or sRGMa or sRGMc) were then coated onto each well; His tag (coated format); Alkaline phosphatase (AP) fusion (solution format, Ec-Neogenin-AP); made in house
T1 sequence (Q92859 34-1105 limits assumed): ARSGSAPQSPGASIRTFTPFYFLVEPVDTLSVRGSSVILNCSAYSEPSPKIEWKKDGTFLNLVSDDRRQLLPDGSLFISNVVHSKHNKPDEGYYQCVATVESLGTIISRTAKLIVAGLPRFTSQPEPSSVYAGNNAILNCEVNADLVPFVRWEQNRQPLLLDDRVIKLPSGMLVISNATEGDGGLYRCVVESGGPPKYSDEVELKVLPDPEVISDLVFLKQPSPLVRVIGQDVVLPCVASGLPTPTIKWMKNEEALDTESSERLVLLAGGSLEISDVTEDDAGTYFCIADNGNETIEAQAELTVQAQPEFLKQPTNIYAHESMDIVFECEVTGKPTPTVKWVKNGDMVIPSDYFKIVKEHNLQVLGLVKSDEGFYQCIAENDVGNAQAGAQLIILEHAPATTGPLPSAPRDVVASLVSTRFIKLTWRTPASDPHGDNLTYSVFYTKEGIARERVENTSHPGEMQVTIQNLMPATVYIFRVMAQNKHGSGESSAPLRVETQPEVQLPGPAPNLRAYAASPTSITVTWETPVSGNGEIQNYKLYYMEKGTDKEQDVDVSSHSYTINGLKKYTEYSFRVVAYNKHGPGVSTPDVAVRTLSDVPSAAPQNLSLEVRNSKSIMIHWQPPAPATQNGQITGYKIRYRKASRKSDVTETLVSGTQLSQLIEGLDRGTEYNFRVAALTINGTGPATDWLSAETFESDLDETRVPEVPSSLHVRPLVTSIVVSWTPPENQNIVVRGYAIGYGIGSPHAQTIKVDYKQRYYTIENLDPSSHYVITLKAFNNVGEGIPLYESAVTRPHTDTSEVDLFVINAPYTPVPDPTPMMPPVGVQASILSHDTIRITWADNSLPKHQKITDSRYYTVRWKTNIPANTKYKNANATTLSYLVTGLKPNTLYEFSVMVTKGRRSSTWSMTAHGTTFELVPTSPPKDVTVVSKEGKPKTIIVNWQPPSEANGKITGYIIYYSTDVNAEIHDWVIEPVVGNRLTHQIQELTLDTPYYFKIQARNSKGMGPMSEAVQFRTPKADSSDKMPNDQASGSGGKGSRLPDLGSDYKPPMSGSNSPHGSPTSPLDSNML
Procedure: (C) Binding of Neogenin to bovine serum albumin (Neogenin+BSA), to RGMa (Neogenin+RGMa), and to RGMc (Neogenin+RGMc) in RGMa-AP and in RGMc-AP. Constructs overexpressing His-tagged sRGMa, sRGMc and the extracellular domains of Neogenin (Ec-Neogenin) were coated onto Poly-L-Lysine coated wells. Alkaline Phosphatase (AP)-tagged proteins (EC-Neogenin or RGMa or RGMc) were then added to each well and incubated at 37° C. for 1 h. Each well was washed and equilibrated with AP developing buffer (100 mM NaHCO3, 1 mM MgCl2). The reaction was initiated using AP developing buffer supplemented with p-nitrophenyl phosphate and then stopped following color development by adding 50 μl (0.1M) NaOH. The absorbance of each reaction was measured using a microplate autoreader at 405 nm as described in the Examples. (D) Binding of Neogenin-AP to bovine serum albumin (Neogenin-AP+BSA), to RGMa (Neogenin-AP+RGMa), and to RGMc (Neogenin-AP+RGMc). Competition assay was performed as described in the Examples and above but in which the constructs were reversed.
Using a 96-well microtiter plate (Corning), wells coated with 100 μl (10 μg/mL) of Poly-L-Lysine (Sigma-Aldrich) incubated at 4° C. overnight were then washed 3× with 100 μl of PBST (+0.02% Tween-20). […] The absorbance of each reaction was measured using a microplate autoreader (BioTek EL311 AutoReader) at 405 nm.

[5] = system: EAE-induced mice; assay: In vivo BBB permeability, fibrinogen extravasation in spinal cord; design: species or system mouse; conditions: EAE day 18; treated every 3 days; vs vehicle
Procedure: To establish the role of RGMc on BBB permeability, 6-8 week old C57Bl/6 female mice induced with EAE and treated with sRGMc or vehicle (n=6 animals per group) were anesthetized 18 days post induction and trans-cardially perfused with 20 mL PBS followed by 20 mL 4% paraformaldehyde in PBS (PFA) (Electron Microscopy Sciences). Spinal cords were cryo-sectioned at 10 μm thickness and stored at −80° C. The sections were stained for Fibrinogen (Innovative Research); CD31 (Invitrogen); and DAPI (Sigma-Aldrich). All images were obtained using a BX61 confocal microscope (Olympus). CellSens software was used for quantification of cell area and pixel intensity. The area (number of pixels) and fluorescent intensity (mean pixel intensity) of the extravasation markers were measured using CellSens software (Olympus). The relative extent of fluorescent extravasation and BBB disruption was then calculated by multiplying the area with the fluorescent intensity.

B1: sRGMc: truncated form of RGMc with the GPI anchor sequence removed, released as a soluble protein (SEQ ID NOs: 1 and 3) (protein, listed as Homo sapiens)
chain: CKILRCNAEYVSSTLSLRGGGSSGALRGGGGGGRGGGVGSGGLCRALRSYALCTRRTARTCRGDLAFHSAVHGIEDLMIQHNCSRQGPTAPPPPRGPALPGAGSGLPAPDPCDYEGRFSRLHGRPPGFLHCASFGDPHVRSFHHHFHTCRVQGAWPLLDNDFLFVQATSSPMALGANATATRKLTIIFKNMQECIDQKVYQAEVDNLPVAFEDGSINGGDRPGGSSLSIQTANPGNHVEIQAAYIGTTIIIRQTAGQLSFSIKVAEDVAMAFSAEQDLQLCVGGCPPSQRLSRSERNRRGAITIDTARRLCKEGLPVEDAYFHSCVFDVLISGDPNFTVAAQAALEDARAFLPDLEKLH
For B1, the “reduction in Evans Blue levels in the brain compared to PBS-treated animals” value [1] was 3 fold, the “Evans Blue extravasation into the CNS, visual inspection” value ([1]; vs control) was “strongly reduced” and the “accumulation of Cellvue+ cells within the spinal cord” value [2] was “did not show accumulation”. For the same molecule, the “functional scores (Bederson test)” value [3] was “significant (*p<0.05) improvement of functional scores”, the “interference with RGMa binding to Neogenin” value [4] was “interferes with RGMa for its binding to Neogenin” and the fibrinogen extravasation [5] was “significant decrease”.
